Experiment [1] addresses T1, SURP1 (res. 48–110) of human SF3A1, R62E mutant (human, UniProt Q15459 48-110, R62E).
T1 sequence: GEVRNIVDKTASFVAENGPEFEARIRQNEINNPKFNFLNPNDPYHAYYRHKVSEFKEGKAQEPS
Nature of the experiment: BLI. A general note: Biolayer interferometry detects binding as a change in optical thickness at a sensor tip.

Experiment [2] has as its target T2, SURP1 (res. 48–110) of human SF3A1, K80Q mutant (human, UniProt Q15459 48-110, K80Q).
T2 sequence: T1 sequence with E16R, K34Q
Put plainly: BLI.

The target in experiment [3] is T3, SURP1 (res. 48–110) of human SF3A1, N63E mutant (human, UniProt Q15459 48-110, N63E).
T3 sequence: T1 sequence with E16R, N17E
Nature of the experiment: BLI.

Experiment [4] concerns the target T4, SURP1 (res. 48–110) of human SF3A1, R62Q mutant (human, UniProt Q15459 48-110, R62Q).
T4 sequence: T1 sequence with E16Q
Nature of the experiment: BLI.

Experiment [5] has as its target T5, SURP1 (res. 48–110) of human SF3A1, wild type (human, UniProt Q15459 48-110).
T5 sequence: T1 sequence with E16R
Put plainly: BLI.

For experiment [6], the target named is T6, SURP1 (res. 48–110) of human SF3A1, K80D mutant (human, UniProt Q15459 48-110, K80D).
T6 sequence: T1 sequence with E16R, K34D
Put plainly: BLI.

Experiment [7] has as its target T7, SURP1 (res. 48–110) of human SF3A1, N63Q mutant (human, UniProt Q15459 48-110, N63Q).
T7 sequence: T1 sequence with E16R, N17Q
Put plainly: BLI.

In experiment [8] the target is T5, SURP1 (res. 48–110) of human SF3A1, …. Nature of the experiment: NMR solution structure.

Positions count from the first letter of the chain named. Ends that are not written are not given here.

As usually defined, the Kd is a measure of binding affinity in units of concentration. High values mean a looser complex, low ones a tighter complex.

In the case of QRPGDPQSAQDKARMDKEYLSLMAELGEAPVPA (peptide, UniProt Q15637 295-327, looked up, also: biotin (position not given here)) [biotin-tagged SF1 S1BRp (res. 295–327)], the Kd in experiment [1] stood at 393 µM; in experiment [2], 64.2 µM; in experiment [3], 251 µM; in experiment [4], 187 µM; in experiment [5], 15.2 µM; in experiment [6], 132 µM. Further, the Kd in experiment [7] worked out at 139 µM.
QRPGDPQSAQDKARMDKEYLSLMAELGEAPVPA (domain or fragment, human, UniProt Q15637 295-327, looked up) [S1BR (res. 295–327) of SF1 as it stands in the chimera]: the binding result in experiment [8] is reported as “binds”.
QRPGDPQSAQDKARMDKEYLSLMAELGEAPVPASVGSTSGP (peptide, UniProt Q15637 295-335, looked up, also: biotin (position not given here)) [biotin-tagged SF1 S1BRp (res. 295–335)] gave a Kd in experiment [5] of 17.3 µM. That is a double-digit micromolar value.
